The chains are these.
T1: human MAdCAM expressed on cells (human, UniProt Q13477 19-382)
T1 construct: whole, on cells; also called MADCAM1
T1 sequence (looked up): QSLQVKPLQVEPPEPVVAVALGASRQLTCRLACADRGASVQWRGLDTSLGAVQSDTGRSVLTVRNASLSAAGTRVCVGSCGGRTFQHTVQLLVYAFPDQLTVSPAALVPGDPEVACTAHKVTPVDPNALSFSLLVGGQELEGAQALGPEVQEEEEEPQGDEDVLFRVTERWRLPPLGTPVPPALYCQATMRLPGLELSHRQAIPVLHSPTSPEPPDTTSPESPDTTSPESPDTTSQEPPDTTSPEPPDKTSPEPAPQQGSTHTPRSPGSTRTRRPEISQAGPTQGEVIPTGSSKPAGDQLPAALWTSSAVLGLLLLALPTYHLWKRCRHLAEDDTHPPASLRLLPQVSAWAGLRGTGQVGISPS

T2: mouse MAdCAM expressed on cells (mouse, UniProt Q61826 22-405)
T2 construct: whole, on cells
T2 sequence (looked up): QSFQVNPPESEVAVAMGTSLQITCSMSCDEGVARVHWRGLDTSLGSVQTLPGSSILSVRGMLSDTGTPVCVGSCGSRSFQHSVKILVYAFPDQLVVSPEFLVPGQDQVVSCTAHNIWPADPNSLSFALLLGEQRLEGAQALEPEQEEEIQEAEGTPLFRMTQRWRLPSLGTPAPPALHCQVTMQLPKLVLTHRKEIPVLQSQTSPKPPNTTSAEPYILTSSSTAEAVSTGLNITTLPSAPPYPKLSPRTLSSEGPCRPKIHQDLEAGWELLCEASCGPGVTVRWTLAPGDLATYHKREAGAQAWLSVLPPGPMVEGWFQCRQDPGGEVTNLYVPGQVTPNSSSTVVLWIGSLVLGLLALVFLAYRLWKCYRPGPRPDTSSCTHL

B1: MAdCAM Antibody Table 1 Clone 17 (scFv)
scFv: EVQLLESGGGLVQPGGSLRLSCAASGFTFSDSAMHWVRQAPGKGLEWVSAISGSGSTIYYADSVKGRFTISRDNSKNTLYLQMNSLRAEDTAVYYCVSDIAVAGHWYFDLWGRGTLVTVSSGGGGSGGGGSGGGGSGGGGSDIQMTQSPSSLSASVGDRVTITCRASQSISTFLNWYQQKPGKAPKLLIYAASRLEGGVPSRFSGSGSGTDFTLTISSLQPEDFATYYCQQANSFPLTFGPGTKVDIK
B2: MAdCAM Antibody Table 1 Clone 10 (scFv)
scFv: QVQLVQSGAEVKKPGASVKVSCKASGYTLTTWYMYWVRQAPGQGLEWMGWINPNRGATNYAQKFQGRVTMTRDTSTSTVYMELSSLRSEDTAVYYCAKGDLWGAMDVWGQGTLVTVSSGGGGSGGGGSGGGGSGGGGSDIQMTQSPSSLSASVGDRVTITCRASDNIGSWLAWYQQKPGKAPKLLIYAASSLQSGVPSRFSGSGSGTDFTLTISSLQPEDFATYYCQQGYSTPPTFGQGTKVEIK
B3: MAdCAM Antibody Table 1 Clone 26 (scFv)
scFv: B2 scFv with L113T
B4: MAdCAM Antibody Table 1 Clone 1 (scFv)
scFv: EVQLLESGGGLVQPGGSLRLSCAASGFTFSSYGMHWVRQAPGKGLEWVAVISDDGSDKYYADSVKGRFTISRDNSKNTLYLQMNSLRAEDTAVYYCTTSKYYYYYGMDVWGQGTTVTVSSGGGGSGGGGSGGGGSGGGGSDIQMTQSPSSLSASVGDRVTITCQASQDISKSLNWYQQKPGKAPKLLIYAASSLQSGVPSRFSGSGSGTDFTLTISSLQPEDFATYYCQQGYSTPLTFGGGTKVEIK
B5: MAdCAM Antibody Table 1 Clone 12 (scFv)
scFv: QVQLVQSGAEVKKPGASVKVSCKASGYTFTGYYMHWVRQAPGQGLEWMGWIGPNSGDTNYAQKFQGRVTMTRDTSTSTVYMELSSLRSEDTAVYYCARDLDHNWYFDLWGRGTLVTVSSGGGGSGGGGSGGGGSGGGGSDIVMTQSPLSLPVTPGEPASISCRSSQSLLHSNGYNYLDWYLQKPGQSPQLLIYSSSNRAPGVPDRFSGSGSGTDFTLKISRVEAEDVGVYYCMQALHIPLTFGGGTKVEIK
B6: MAdCAM Antibody Table 1 Clone 16 (scFv)
scFv: EVQLLESGGGLVQPGGSLRLSCAASGFTFEDYAMHWVRQAPGKGLEWVSYLNSDGGSTSYADSVKGRFTISRDNSKNTLYLQMNSLRAEDTAVYYCAKDYCTNGVCAFDYWGQGTLVTVSSGGGGSGGGGSGGGGSGGGGSDIQMTQSPSSLSASVGDRVTITCRASQSISTYLNWYQQKPGKAPKLLIYDASNLETGVPSRFSGSGSGTDFTLTISSLQPEDFATYYCQQSYTIPITFGQGTRLEIK
B7: MAdCAM Antibody Table 1 Clone 21 (scFv)
scFv: EVQLLESGGGLVQPGGSLRLSCAASGFTFSNAWMSWVRQAPGKGLEWVSTIVGNGGATYYADSVKGRFTISRDNSKNTLYLQMNSLRAEDTAVYYCARDNPLRWQGMDVWGQGTLVTVSSGGGGSGGGGSGGGGSGGGGSDIQMTQSPSSLSASVGDRVTITCRASQDISNYLNWYQQKPGKAPKLLIYAASSLQSGVPSRFSGSGSGTDFTLTISSLQPEDFATYYCQQSYSIPPTFGPGTKVDIK
B8: MAdCAM Antibody Table 1 Clone 13 (scFv)
scFv: EVQLLESGGGLVQPGGSLRLSCAASGFTFDDYAMHWVRQAPGKGLEWVSYIDASGTTIYYADSVKGRFTISRDNSKNTLYLQMNSLRAEDTAVYYCAKDQAAAGYWYFDLWGRGTLVTVSSGGGGSGGGGSGGGGSGGGGSDIQMTQSPSSLSASVGDRVTITCQASQDISNYLNWYQQKPGKAPKLLIYKASTLESGVPSRFSGSGSGTDFTLTISSLQPEDFATYYCQQSYSTPITFGQGTRLEIK
B9: MAdCAM Antibody Table 1 Clone 14 (scFv)
scFv: QVQLVQSGAEVKKPGSSVKVSCKASGYTFTDYHIHWVRQAPGQGLEWMGGIVPRSGSTTYAQKFQGRVTITADESTSTAYMELSSLRSEDTAVYYCAKDESSGWYYFDYWGQGTLVTVSSGGGGSGGGGSGGGGSGGGGSDIVMTQSPLSLPVTPGEPASISCRSSQSLLHSNGYNYLDWYLQKPGQSPQLLIYSAYNRASGVPDRFSGSGSGTDFTLKISRVEAEDVGVYYCMQALQTPLTFGQGTKVEIK
B10: MAdCAM Antibody Table 1 Clone 15 (scFv)
scFv: QVQLVQSGAEVKKPGSSVKVSCKASGYTFTNYYMHWVRQAPGQGLEWMGGIIPIVDRVKYAQKFQGRVTITADESTSTAYMELSSLRSEDTAVYYCAKGRYTVNYYYGMDVWGQGTTVTVSSGGGGSGGGGSGGGGSGGGGSDIQMTQSPSSLSASVGDRVTITCQANQDISNYLNWYQQKPGKAPKLLIYRASKLEAGVPSRFSGSGSGTDFTLTISSLQPEDFATYYCQQSSEIPYSFGQGTKLEIK
B11: MAdCAM Antibody Table 1 Clone 25 (scFv)
scFv: B2 scFv
B12: MAdCAM Antibody Table 1 Clone 30 (scFv)
scFv: B2 scFv
B13: MAdCAM Antibody Table 1 Clone 8 (scFv)
scFv: EVQLLESGGGLVQPGGSLRLSCAASGFMFGDYAMHWVRQAPGKGLEWVSAISGSGGSTYYADSVKGRFTISRDNSKNTLYLQMNSLRAEDTAVYYCAKDLVVAGIWYFDLWGRGTLVTVSSGGGGSGGGGSGGGGSGGGGSDIQMTQSPSSLSASVGDRVTITCRASQGISNNLNWYQQKPGKAPKLLIYDASSLESGVPSRFSGSGSGTDFTLTISSLQPEDFATYYCQQTHSFPSTFGQGTKLEIK
B14: MAdCAM Antibody Table 2 Clone 81 (antibody, human IgG1, V domains shown)
VH: EVQLLESGGGLVKPGGSLRLSCAASGFAFSSHWMHWVRQAPGKGLEWVAGTSGSGESRDYADFVKGRFTISRDDSKNTLYLQMNSLKTEDTAVYYCARETYYYYYMDVWGKGTTVTVSS
VL: DIQMTQSPSSLSASVGDRVTITCRASQGISNYLAWYQQKPGKAPKLLIYDAANLEGGVPSRFSGSGSGTDFTLTISSLQPEDFATYYCQQSDIFPPTFGQGTKVEIK
B15: MAdCAM Antibody Table 2 Clone 83 (antibody, human IgG1, V domains shown)
VH: EVQLLESGGGLVQPGGSLRLSCAASGFTFSSYWMHWVRQAPGKGLEWVAAISYDGKYKDYEDSVKGRFTISRDNSKNTLYLQMNSLRAEDTAVYYCARENKQWLASFDYWGQGTLVTVSS
VL: DIQMTQSPSSLSASVGDRVTITCQASQDISNFVNWYQQKPGKAPKLLIYAANLRSGVPSRFSGSGSGTDFTLTISSLQPEDFATYYCQQANSFPVTFGPGTKVDIK
B16: MAdCAM Antibody Table 2 Clone 84 (antibody, human IgG1, V domains shown)
VH: QVQLVQSGAEVKKPGASVKVSCKASGGTFSSSAISWVRQAPGQGLEWMGWISAYNGYTNYAQKFQGRVTMTRDTSTSTVYMELSSLRSEDTAVYYCASRVHSGGSYPDDYWGQGTLVTVSS
VL: DIQMTQSPSSLSASVGDRVTITCQASEHIYNYLNWYQQKPGKAPKLLIYAASSLQSGVPSRFSGSGSGTDFTLTISSLQPEDFATYYCQQTDSIPITFGQGTKVEIK
B17: MAdCAM Antibody Table 2 Clone 82 (antibody, human IgG1, V domains shown)
VH: QVQLVQSGAEVKKPGASVKVSCKASGYTFTRHWIHWVRQAPGQGLEWMGWINVKTGGAGYAQKFQGRVTMTRDTSTSTVYMELSSLRSEDTAVYYCARESSGWYGTDVWGQGTTVTVSS
VL: DIQMTQSPSSLSASVGDRATITCRASQSISNYLAWYQQKPGKAPKLLIYAASSLQSGVPSRFSGSGSGTDFTLTISSLQPEDFATYYCQQSNSFPLTFGGGTKVEIK

17 molecules from patent US20210206856A1 (PANDION OPERATIONS, published 2021) can be followed below.

Substitutions are numbered along the chain they refer to.

One test deals with T1, human MAdCAM expressed on cells. Put plainly: cell binding.
On to B1, for which the binding result is given as “binds”.

B2: the binding result is on record as “binds”.

As to B3, the binding result is reported as “binds”.

B4: the binding result was “binds”.

B5: the binding result is reported as “binds”.

Regarding B6, the binding result is on record as “binds”.

Turning to B7, the binding result is “binds”.

With B8, the binding result is “binds”.

Turning to B9, the binding result is listed as “binds”.

With B10, the binding result is given as “binds”.

The target in the next test is T2, mouse MAdCAM expressed on cells. Put plainly: cell binding.
Take B1: the binding result is “no binding”.

B2: the binding result is listed as “no binding”.

On to B11, for which the binding result was “no binding”.

With B12, the binding result is “no binding”.

As for B3, the binding result is recorded as “no binding”.

As to B5, the binding result is on record as “no binding”.

In the case of B13, the binding result is reported as “no binding”.

Take B6: the binding result is reported as “no binding”.

Consider B7, for which the binding result is recorded as “no binding”.

Take B8: the binding result is “no binding”.

For B9, the binding result is “no binding”.

For B10, the binding result is given as “no binding”.

A further test has as its target T1, human MAdCAM expressed on cells. Put plainly: cell binding. This is another data set of the same source.
In the case of B14, the binding result is on record as “binds”.

As to B15, the binding result is on record as “binds”.

Consider B16, for which the binding result is recorded as “binds”.

With B17, the binding result is given as “binds”.

Another test deals with T2, mouse MAdCAM expressed on cells. Put plainly: cell binding. The source holds these as a separate data set.
In the case of B14, the binding result is recorded as “binds”.

For the molecule B15, the binding result is given as “binds”.

As for B16, the binding result was “binds”.

As to B17, the binding result is on record as “binds”.
